A short description of this data set: protease stability score; higher = more stable; yeast display proteolysis, trypsin and chymotrypsin.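 Further: relative to predicted unfolded state with 0 unfolded-like and 1 meaning tenfold more protease.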
Turning to “DEELEMLRRFWEDLLHSAKTGDEELWERLADPNVRVIINGKLFHGRELASHALRELFERVDVIKDVKITDEKRQGDKIHLDIRVHNHYNGKFEDNDLHIVLVKVDGKWFLKSVEFR”, the protease stability score turned out to be 2.12.

Turning to “SEDDHMAELASRLVHERVKTGDPRVVDELLDPNVRLEYGDKEWHGREEFRKFLRHLRLHDVHIRSYEIQGDKVYIDGRVDGEVNGKRSLLETHIYAKKIDGRWLETSVVMK”, the protease stability score amounted to 0.561.

With “DELNELNKEAFETYHQISETGNETMHSRNADPHVRIDINGVEYHGWEHAERLWKNLGVKHIQFHDIEIQGNKLIITVIVEVNGQETRSEVILLKINGRWLIHSLSFR”, the protease stability score worked out at 1.06.

As to “DEEHNHFERLTRWFEHVWRTGNEEFFRELADPNARMRINGQEYVGREELVRTLHEWLKILGAKHHRKKDEEIQGEKVILIGEVDIDGRTLRHHVHFRIINGRLHSLEVEVK”, the protease stability score is 1.3.

In the case of “SELDHLTKHAMELWLRLLETGDEHSEHRLADPNVRLDVNGKELHGMEEILEHLSRLGIKVFRVKDTELVGNKLHLIGELEFDGKRVETHVIAWKINGRWHLHRREIR”, the protease stability score was determined as 1.57.

As to “DEDQEIAEHVAELILELLLTGDEEKFLTLLDPNVRIIVGDKELHGREDWMRLFRHMRVRHVELRKIEVQGEKVHVDSRLDVEFNGRRRNINANWIVLKVNGRWTIRSVELE”, the protease stability score came to 2.17.

Sequence “SDVDDMAHKMATLLIDLLETGDWREIRKFADPNVRIEIGDKEYHGMDYHLKHFRDLGWELHLRVERIDVVNGRILIHQEVELRFDGRHDHRKHTLIIEKIDGKWRFNEMIIS” returned a protease stability score of 1.09.

On to “SEREKIAELAYRLLKRSSDTGDPHLMQWLMDPNTRIEQGEFEHHGRDAISFWIKRFDHNRHIDVKRIEVQGNKVIMEFDVELDVNGVEIHTELVLISLKVNGQWRMESIKIE”, for which the protease stability score was determined as 0.575.

“TQEKREADHSNKLEEHSHQTGDERLLTELADPHVKIFVDGQELHGREEFLRWVEEAGVKHFHVDHVRYQGDKLFVHGHFNINGREREVRLIYRKVNGKWYLHQMDIN”: the protease stability score came to 1.23.

“SEDEELLRESVRIFREAMRTGDEEFSERMIDPNVRIHIGDKEYIGREWASEWHKRLGIKHSRFRHIEIQGDFMIADVENKVGDKHIQVEYWRHKINGRWIIESIKVH”: the protease stability score was 1.55.

Take “SSEEKRDKDAVELFLKILHTGNFELFRELFDPNTRWEYGDKELIGMELIVTWWFEFVRDRGVEVELHRIDRINGRVVLETTMRIGDKQTSTHVHVIVINGVFHEVRFRFH”: the protease stability score was 1.29.

In turn, “DERTEFLERMSEHLTHVWHTGNEELWNRLADPRARFIEFVDGKKNHHHGMEVASNRIKKWRKDLGIDHVRLKEERVQGNKVELHLQVDINGVEQTVEIYNSIVDGRFESLEVNIHTR” gave a protease stability score of 0.074.

With “DEEHKLQEDFLKALIRSILTGDWEFWKRLLDPHVRMNINGVYVHGRDEAANILIKDLERRGMEIKTITIEDRRHYDGVLEVKLRIQTTIDGQEHETSLEFHVKKYDGRWIIEHITVR”, the protease stability score was found to be 2.19.

“DREEEDYRRAWEHLHKDWKTGNEEHMERNADPNVRVEINGVERVGRELFVELMRHLVRHIRIEHVHVERSDIVNGVIILDMIVTGRIGDKSEIERVEVHTLKIDGRWLLTEVRFK”: the protease stability score came out at 0.663.

In turn, “SEEEEHSLKIARQWVENVLTGDEHLLRKLADPDTRIIVDGRHYHGWRQEHKVLEEIRIHDMFEKDVEVQGDKIYMNGTVDGEINGKRTRSDVDLIILVVDGRIKQVEINVH” displayed a protease stability score of 1.12.

Sequence “DEDEHTIRELFKEFIIAQVTGDFERLHELLDPHARLEIDGVILHGREQWTKFMQHLLEYLGIKHVSFHLHHLDVQGEKVKLDSRVRLFFNGVHYEKRNIIIWRKFNGRWYLEESTIE” registered a protease stability score of 1.48.

For “RDLDEIARHVIELWKETYETGDERHLRELLDPNMRVEVNGVESHGREEMMKHMVKYAREIRITEIIDRDTDSQGNKLHIHGEIIVEQGDKKHRYTLDVTFFVVDGRIKHLHFRSK”, the protease stability score is 1.2.

As for “DERHELTRRVAVLWLHIFMTGDEDLFEKLADPTTRQEVLFNGRIYSLVGREEVSRWLREMVHELRFRHIEDKDKEIQGDKVLIDGILHIEAENHSTTIRSRIVLIVVNGKIHTIKFEFH”, the protease stability score is 1.55.

For the sequence “DEDEELSERVTREWLHAILTGDEDWLRRYVDPHVRVHINVDGKDRTVHGMDFLIEHLRRVPNVRFIIKHMEVETQGEKVIIRVNVRIRVGDKEHETEIILIVLKVDGRWIATSIFIHIR”, the protease stability score is 0.231.

In turn, “SEEEKHWEDLVEHLHQIWLTGDEDTLRHRLDPNMRMDIDGKELHGRESIIEEIRRLGVDHVETKRKHSQGDKAHFDLIIRIDGKEHKMEIVIVVVNGKLKEVVLRRK” had a protease stability score of 1.1.

In turn, “DELRKESEDLVRILIEIFHTGDEDVFKRMADPHVRLIAENRIVVGRDLVSRFFRHLLEKYPNVTDHVDVRRIILVGDWLHIDLRIDIEIGDKRHEHDVKIHVRKIDGRWVITEIHVK” had a protease stability score of 1.85.

“DDIRKWMEHVFRDFNRSLKTGDERRSLELLDPHARIDINGVELIGREMFRKELHEMRIHVDDFDIESVDIQGDKVHLRTRVRVTIIVDGVKIHEERELEIHLHKFDGRWYIKEIRVR”: the protease stability score was 1.46.

In the case of “DELDKLAHIMMEEILRNWVTGDEDRHNELADPTVRMHSIVGDKHLEIHGREIFTEFLKRIKNVTFEIRLTDLKIQGEKAHSHTRLILRFDGQQVERDTEVTIIVINGRVKDVSIIIR”, the protease stability score turned out to be 1.06.

The sequence “EHEDELKHFIHELWKYASDTGDFRTELLLLDPNAKVQVGDKEYHGREWLEFELRRLGVDRIIKEIHIHHEHEQGDKLEIRGELHLLFNGKRIVIDVKLFFLKIDGKWFNRHIIIK” gave a protease stability score of 1.75.

Consider “DEMQEVLERFAHEWFHNLHTGDEDTLLKLADPNVRVHVGDKDLIGRELWKEELHKMKGLKLELHDYHAINGRIHLDVTQKFNGKEVELEMDIIVVNGRVKEIRHQRR”, for which the protease stability score was found to be 1.06.

As to “DESTSQARKAIEQLIHVEETGDEEMFSTLVDPHVRMDYNGVELHGMEKARNHWNELWKRFKGIKIELKRLEIQGNKVRVQMTYIVGDKNKYVEIHITKIDGQWVITEIHVD”, the protease stability score stood at 1.12.

“SEDHEAAHDMLELLRHMELTGDENSLMDLLDPNAKNDVDGKVSVGREEWLRMVHFLLTRFDHIKSIEVEESRHIDGRLNYQTRLRGTVNGQDVELRTEWIVIKVNGKWFLHKVRFV”: the protease stability score turned out to be 1.24.

For “DEIEQIMEYLAHVHIEFIITGDEDTLEHLADPHVKIEVNGQSLVGWKHWSRFLKKLGWKRDMRVRHIHAQGDKIHVDGHLVNDFDGREFRYKTHLEIKVVDGKLKVIRIDQE”, the protease stability score is 1.41.

Sequence “DEHEEHWREMFERWLFALITGDEETLHKLLDPNVKMDINGQHHVGREQVLHEFRKFHDVLGVKVSRNFHVKDKEVQGDKLHLTIEFRGEFNGKEEITQARIVIVKINGRWTIERVELE” gave a protease stability score of 1.97.

In turn, “NEVDEWVEEAVHLLEEILETGDFRELSNYFDPRVRIDINGRDYHGRELALEQLLRWIEDLGVKHFDHYEIHDREIQGEKVNLNIEITLTFDGRRHTIHHNFHMEKVNGKWVIESIHIR” returned a protease stability score of 1.19.

The sequence “SEEERESKEATKLHLDALRTGNEELLRHLFDPDVKVDVNGKHLHGWKLLTEVLQRMGVKHVELTDFRVYDGRIDLREKWDVDGKEIEVFIHARKFNGQWHTESIHIK” showed a protease stability score of 1.15.

As for “DELTEVADYLLEHFIRNLITGNEERVRHLADPHVRVIEVYGDKVEMRHGRDSMLKWMHDWRHHIRLKHYQIEHIEVQGEKSVVHGRLRGNIDGRDIDTRTHIEVVHIDGRFTSMRYEVR”, the protease stability score worked out at 0.555.

For “DHIDEDAAHVSRVLLTLLRTGDEETLFQLLDPNMRVDVNGVELHGREEWWKHVYRRNKELGMEVKYHLHKLTVINGVAHIDFRIEIYIGDKRIEYRHEVHIEKINGVWLVREIREG”, the protease stability score was found to be 1.47.

As to “DEEHEIVELIMRIFLHAVLTGDWELIEKLADPNVRIIIRINGQEIHFHGREHLRHRFEHLRIDRMEIHDYKNVGDWLDIDGRENGNFNGRKHETRVHIHIRVINGKLHELRVTYR”, the protease stability score was found to be 1.68.

“DDDEHEAKEAIHLWLELFMTGDEESHNRYMDPHVKTKFHFENHHEEYHGREKAIELMRMLGIKHVELRDVSTRVINGRVHIDMEIIVHFDGQEVRVIVLVIVIKINGQWILHEVVIIIK” had a protease stability score of 0.933.

Consider “DEEEERTKHHFELLFKLWTTGDEDSLSHLADPNVRVHVDGKDFHGWEDMKDFMREWIERFKNVRLELKHFEAQGDKASSEIKIHYGDKHVTEFIEIILFNGRLHEIRRLFKRD”, for which the protease stability score was 1.01.

Sequence “HEDEQLAREFVEHLTENLRTGNEERIAELADPHVRVDIGDKHLHGWEWLRRRVRELRFHDLIIHHVEVIDGRIIFRGRMDGRVNGRHTQTEVRVELDKIDGRWTIRHIEIR” displayed a protease stability score of 2.01.

In turn, “DERHRYMKLFLDIFLHLYQTGDWDKLEHLADPHVKLIFENHELHGRDSFFRFILEWLRHMGVNHVEFHNIHYDLVGDKVHLEVRLIVFINGRIHHVIIHIIAEKIDGKWHLRSHEIRHE” yielded a protease stability score of 1.34.

Regarding “DDREKETQEFFERWVEAFITGDEHDLHEMLDPHARIHLIIGDKKEDLHGRESAVEVMKRIDHKHEFRIRHLWIFDGRIHVDVKLTGHFDGRTYQHDVHINIKIVDGKIHSIQIEWR”, the protease stability score was found to be 2.22.

In turn, “SELERDAEMAFKIYKHNIETGNEEELDKLVDPNVRLEAENHSTHGREDWYNLMRHFGVKHTDVKDFRIQGDKIHLHGVLHFNGRTFKITLYVHKFDGRWHIKSVEVH” registered a protease stability score of 0.364.

In turn, “DDLEREAEEFHRLMHKSVRTGDEKLIEEMFDPNVRLDINGREMHGRHDVVELERRVDHSEWHIEDIRVVGEWADIRGELVIQVGDKEHIYKTRLIVLKIDGKWRTTEMHVR” returned a protease stability score of 0.731.

On to “DRERRHEEQLYRDLIHAWFTGDEEWLRKYADPHVRVEIGDKLRHGMEWLAKMREDVHRHLGIDHIHIHDHYFFDGRVHMDFRINIGDKHHNLHLHIVNVDGKVRSFRFEIH”, for which the protease stability score was found to be 1.09.

“SEEEQDIKHFLELIERTHHTGDEKLFRDLFDPNVRLHVGDKNMHGREKALERWRLLGYEIKHLRWRDFRIFDGRVTAHGEMEGQVNGQKIKRDVEIVLVKIDGQWFIEEERVR” returned a protease stability score of 1.57.

“SEEEQEFRLILKEHLDKLETGDEDDLHRLMDPNVRIEIGDKEMHGREHATRFFRELRVEHVHLESYELQGEKVNLHGRMIGDINGKKVDRTVHIFLLKVNGRWIIHSWEVV” gave a protease stability score of 2.14.

“SEVEHALHEILEILVKIMKTGNFEDLIRNFDPHVQLEFNGKRYHGREAEHFLRERFDHNRHHHVHEVRVQGDKVELHGKLIGEFNGREEEVHIDIIAHKINGRWIFKSVHFR” showed a protease stability score of 2.15.

“TEDEKLVEIALELWLRSLRTGDEDMFRELFDPNTRIFVNGVDHHGRHALEIVKERYDHVRDFHIELRSVHYVNGVLHVDGHFRMDIKYGDKRRIIENRTIMIIEKINGRWIFKHERLE” displayed a protease stability score of 1.24.

“SHLSEIAEEIMRELAHAQITGDEHTISRLLDPDTRVEFNGQELHGRDSWVKFLRELGVDHIEIRLEIKRMRIFENRVEIDGVDHIIIRYNGREERREIPSHWDLMKIDGRWSIHSVRAE”: the protease stability score is 1.4.

The values above are taken from the NTF2 design screens of Basanta et al. (2020).
